The text below walks through data of US20220025071A1 (BIOMOLECULAR, published 2022).

Positions count from the first letter of the chain named. Names and notes keep the numbering of the source.

B1: Rc66SIDE-P4-Rc66SIDE (antibody, human IgG1, kappa)
light: QIVLSQSPAILSASPGEKVTMTCRASSSVSYIHWFQQKPGSSPKPWIYATSNLASGVPVRFSGSGSGTSYSLTISRVEAEDAATYYCQQWTSNPPTFGGGTKLEIKRTVAAPSVFIFPPSDEQLKSGTASVVCLLNNFYPREAKVQWKVDNALQSGNSQESVTEQDSKDSTYSLSSTLTLSKADYEKHKVYACEVTHQGLSSPVTKSFNRGEC
heavy: QVQLQQPGAELVKPGASVKMSCKASGYTFTSYNMHWVKQTPGRGLEWIGAIYPGNGDTSYNQKFKGKATLTADKSSSTAYMQLSSLTSEDSAVYYCARSTYYGGDWYFNVWGAGTTVTVSAASTKGPSVFPLAPSSKSTSGGTAALGCLVKDYFPEPVTVSWNSGALTSGVHTFPAVLQSSGLYSLSSVVTVPSSSLGTQTYICNVNHKPSNTKVDKKAEPKSCDKTHTCPPCPAPELLGGPDVFLFPPKPKDTLMISRTPEVTCVVVDVSHEDPEVKFNWYVDGVEVHNAKTKPREEQYNSTYRVVSVLTVLHQDWLNGKEYKCKVSNKALPAPEEKTISKAKGQPREPQVYVLPPSRDELTKNQVSLLCLVKGFYPSDIAVEWESNGQPENNYLTWPPVLDSDGSFFLYSKLTVDKSRWQQGNVFSCSVMHEALHNHYTQKSLSLSPGK
chain: CPPCPAPELLGGPDVFLFPPKPKDTLMISRTPEVTCVVVDVSHEDPEVKFNWYVDGVEVHNAKTKPREEQYNSTYRVVSVLTVLHQDWLNGKEYKCKVSNKALPAPEEKTISKAKGQPREPQVYVYPPSRDELTKNQVSLTCLVKGFYPSDIAVEWESNGQPENNYKTTPPVLDSDGSFALVSKLTVDKSRWQQGNVFSCSVMHEALHNHYTQKSLSLSPGK
B2: Rc66SIDE-P16-Rc66SIDE (antibody, human IgG1, kappa)
light: B1 light
heavy: B1 heavy
chain: B1 chain
B3: Rc66SIDE-P28-Rc66SIDE (antibody, human IgG1, kappa)
light: B1 light
heavy: B1 heavy
chain: B1 chain
B4: Rc66SIDE (one-arm antibody) (antibody, human IgG1, kappa)
light: B1 light
heavy: B1 heavy
chain: B1 chain
B5: B19c66 (one-arm antibody) (antibody, human IgG1, kappa)
light: not shown
heavy: not shown
chain: B1 chain with D14S, E107I
B6: B19c66AAC9 (one-arm antibody) (antibody, human IgG1, kappa)
light: not shown
heavy: QVQLQQSGAELVRPGSSVKISCKASGYAFSSYWMNWVKQRPGQGLEWIGQIWPGDGDTNYNGKFKGKATLTADESSSTAYMQLSSLASEDSAVYFCARRETTTVGRYYYAMDYWGQGTTVTVSSASTKGPSVFPLAPSSKSTSGGTAALGCLVKDYFPEPVTVSWNSGALTSGVHTFPAVLQSSGLYSLSSVVTVPSSSLGTQTYICNVNHKPSNTKVDKKVEPKSCDKTHTCPPCPAPKRRGGPSVFLFPPKPKDTLMISRTPEVTCVVVDVSHEDPEVKFNWYVDGVEVHNAKTKPREEQYNSTYRVVSVLTVLHQDWLNGKEYKCKVSNKALPAPIEKTISKAKGQPREPQVYVLPPSRDELTKNQVSLLCLVKGFYPSDIAVEWESNGQPENNYLTWPPVLDSDGSFFLYSKLTVDKSRWQQGNVFSCSVMHEALHNHYTQKSLSLSPGK
chain: B1 chain with L9D, L10E, D14S, E107I
B7: ACE2Fc-740HA201RF/O24A-DHS (bispecific antibody)
chain: not shown
light: not shown
heavy: QAYLQQSGAELVRPGASVKMSCKASGYTFTSYSMHWVKQTPRQGLEWIGAIYPGNDDTSYNQKFKGKATLTVDRSSSTAYMQLSSLTSEDSAVYFCTRDYSNYPFDYWGQGTTLTVSSASTKGPSVFPLAPSSKSTSGGTAALGCLVKDYFPEPVTVSWNSGALTSGVHTFPAVLQSSGLYSLSSVVTVPSSSLGTQTYICNVNHKPSNTKVDKKVEPKSCDKTHTCPPCPAPELLGGPSVFLFPPKPKDTLMISRTPEVTCVVVDVSHEDPEVKFNWYVDGVEVHNAKTKPREEQYNSTYRVVSVLTVDHHDWLNGKEYKCKVSNKALPAPIEKTISKAKGQPREPQVYTLPPCRDELTKNQVSLWCLVKGFYPSDIAVEWESNGQPENNYKTTPPVLDSDGSFFLYSKLTVDKSRWQQGNVFSCSVMHEALHSHYTQKSLSLSPG
notes: also called 15-23

The term Kd denotes the constant that tells how readily two partners part at equilibrium.

Recombinant human Fc gamma receptor IIIa, CD16a 158F, sequence (P08637 17-208 limits assumed): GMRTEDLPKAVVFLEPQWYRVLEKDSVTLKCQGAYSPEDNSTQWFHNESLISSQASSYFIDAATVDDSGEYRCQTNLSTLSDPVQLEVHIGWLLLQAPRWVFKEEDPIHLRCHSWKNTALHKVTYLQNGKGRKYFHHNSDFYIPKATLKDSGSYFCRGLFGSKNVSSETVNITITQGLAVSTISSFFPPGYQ
Recombinant human Fc gamma receptor IIIb, CD16b, sequence (O75015 17-200 limits assumed): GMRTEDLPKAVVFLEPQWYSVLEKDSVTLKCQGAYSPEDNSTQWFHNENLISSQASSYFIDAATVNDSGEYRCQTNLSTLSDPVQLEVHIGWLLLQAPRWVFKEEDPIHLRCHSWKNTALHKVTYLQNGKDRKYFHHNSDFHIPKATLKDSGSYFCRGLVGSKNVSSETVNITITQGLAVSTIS

In the first assay the target is Recombinant human Fc gamma receptor I, CD64 (human, UniProt P12314 16-288).
Recombinant human Fc gamma receptor I, CD64, sequence (P12314 16-288 limits assumed): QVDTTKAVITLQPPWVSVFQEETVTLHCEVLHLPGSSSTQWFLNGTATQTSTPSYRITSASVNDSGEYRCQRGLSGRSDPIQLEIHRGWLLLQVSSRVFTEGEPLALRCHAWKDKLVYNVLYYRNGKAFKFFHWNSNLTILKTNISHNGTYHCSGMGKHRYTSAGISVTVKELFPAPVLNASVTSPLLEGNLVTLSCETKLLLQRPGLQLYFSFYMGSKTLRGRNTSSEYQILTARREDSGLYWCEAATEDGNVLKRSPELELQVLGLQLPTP
Experiment: not given
Take B1: the Kd is less than 0.001 nM.

On to B2, for which the Kd was less than 0.001 nM.

On to B3, for which the Kd is 1.14 nM.

Another assay addresses T1, Recombinant human Fc gamma receptor IIb/c, CD32b/c (human, UniProt P31994 46-217).
T1 sequence (looked up): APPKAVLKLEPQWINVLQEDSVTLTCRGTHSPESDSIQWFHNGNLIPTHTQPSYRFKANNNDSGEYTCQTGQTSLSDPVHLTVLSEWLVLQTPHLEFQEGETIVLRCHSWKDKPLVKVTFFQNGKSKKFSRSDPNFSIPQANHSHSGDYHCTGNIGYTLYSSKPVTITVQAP
Experiment: not given
On to B4, for which the equilibrium dissociation constant (Kd) turned out to be 253 nM.

For B1, the Kd was 3.17 nM.

B2: the equilibrium dissociation constant (Kd) was found to be 0.556 nM.

Consider B3, for which the Kd was 7.28 nM.

Another assay concerns the target T2, Recombinant human Fc gamma receptor IIa, CD32a 131H (human, UniProt P12318 36-218).
T2 sequence (looked up): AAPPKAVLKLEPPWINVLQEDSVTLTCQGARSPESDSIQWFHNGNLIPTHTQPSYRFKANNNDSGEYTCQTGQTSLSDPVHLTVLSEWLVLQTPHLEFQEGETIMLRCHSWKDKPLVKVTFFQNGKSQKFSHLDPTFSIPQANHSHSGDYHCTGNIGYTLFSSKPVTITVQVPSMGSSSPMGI
Experiment: not given
In the case of B4, the Kd worked out at 255 nM.

As for B1, the Kd stood at 2.54 nM.

In the case of B2, the Kd was 0.808 nM.

Take B3: the Kd was found to be 5.42 nM.

A further assay concerns the target Recombinant human Fc gamma receptor IIIa, CD16a 158F (human, UniProt P08637 17-208).
Experiment: not given
In the case of B4, the Kd was 76.8 nM.

On to B1, for which the Kd amounted to 3.87 nM.

In the case of B2, the Kd amounted to 2.71 nM.

Regarding B3, the Kd came to 6.62 nM.

In the next assay the target is T3, Recombinant human Fc gamma receptor IIa, CD32a 131R (human, UniProt P12318 36-218).
T3 sequence (looked up): T2 sequence (looked up) with H132R
Experiment: not given
For B4, the dissociation constant (Kd) stood at 202 nM.

On to B1, for which the equilibrium dissociation constant (Kd) turned out to be 4.93 nM.

In the case of B2, the Kd came to 1.83 nM.

Take B3: the Kd was 8.11 nM.

Another assay has as its target Recombinant human Fc gamma receptor IIIb, CD16b (human, UniProt O75015 17-200).
Experiment: not given
B4: the Kd was 163 nM.

For B1, the Kd came to 1.05 nM.

On to B2, for which the Kd was less than 0.001 nM.

As for B3, the Kd was 5.64 nM.

The target in another assay is T4, Recombinant human Fc gamma receptor IIIa, CD16a 158V (human, UniProt P08637 17-208).
T4 sequence (P08637 17-208 F176V limits assumed): as the sequence (P08637 17-208 limits assumed) above, with F160V counted along it
Experiment: not given
On to B4, for which the Kd came to 46.2 nM.

Consider B1, for which the Kd amounted to 1.14 nM.

For the molecule B2, the Kd was 0.257 nM.

Regarding B3, the Kd was 4.98 nM.

The next assay addresses T5, CD20 Lipoparticles (UniProt P11836 1-297).
T5 sequence (looked up): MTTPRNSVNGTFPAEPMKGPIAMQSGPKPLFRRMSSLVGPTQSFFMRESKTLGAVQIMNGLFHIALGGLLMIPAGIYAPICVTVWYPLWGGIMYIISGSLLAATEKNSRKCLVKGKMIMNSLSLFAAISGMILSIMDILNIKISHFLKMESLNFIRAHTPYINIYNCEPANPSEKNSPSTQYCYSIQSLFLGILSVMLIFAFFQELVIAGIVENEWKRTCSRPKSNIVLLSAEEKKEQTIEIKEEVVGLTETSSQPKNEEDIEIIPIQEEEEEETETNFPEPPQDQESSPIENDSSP
Experiment: not given
B4: the Kd amounted to 21.4 nM.

In the case of B1, the Kd was less than 0.001 nM.

On to B2, for which the Kd was less than 0.001 nM.

B3 yielded a Kd of less than 0.001 nM.

In the next assay the target is T6, CD19 (UniProt P15391 20-291).
T6 sequence (looked up): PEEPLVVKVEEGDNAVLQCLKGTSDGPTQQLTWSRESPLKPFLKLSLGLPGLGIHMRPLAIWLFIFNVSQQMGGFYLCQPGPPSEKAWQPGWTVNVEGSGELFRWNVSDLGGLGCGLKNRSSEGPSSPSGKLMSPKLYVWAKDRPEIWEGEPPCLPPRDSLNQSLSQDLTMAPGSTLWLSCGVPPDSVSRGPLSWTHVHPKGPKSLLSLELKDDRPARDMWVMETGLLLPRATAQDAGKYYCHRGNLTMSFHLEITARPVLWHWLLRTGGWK
Experiment: not given
For the molecule B5, the affinity, expressed as Kd, was 21.8 nM.

As for B6, binding was characterised by a dissociation constant (Kd) of 21 nM.

Another assay deals with T4, Recombinant human Fc gamma receptor ….
Experiment: not given
This is another data set of the same source.
Regarding B5, the Kd came to 234 nM.

In the next assay the target is T1, Recombinant human Fc gamma receptor …. The experiment in a line: SPR (Carterra LSA).
For B7, the binding result is “no binding (tested: up to 2000 nM)”.
